# Measurements from the supplement of paper PMC7125110.
# ± gives the standard error. Fewer inactive variants are shown than the library holds.
# B1: glmS ribozyme (parent)
# chain: AUAAAAGCGCCAGAACUACAGAAAUGUAGUUGACGAGGAGGAGGUUUAUCGAAUUUUCGGCGGAUGCCUCCAAA
# Variants of: B1
# Assay: self-cleavage kobs at 2500 uM GlcN6P; higher = faster cleavage; RNA array
# Conditions: with glucosamine-6-phosphate
# In short: (§1)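 Tracking of barcoded ribozyme variants used a hybridised Cy3 probe at 37 °C, after in situ transcription by E. coli RNA polymerase on sequenced MiSeq chips. The flowed solution held 40 μM to 10 mM glucosamine-6-phosphate in HEPES/KCl/Mg(OAc)2 buffer, and imaging ran over ~14 h. kobs was taken from exponential decay fits of normalised per-tile medians, and kcat and KM from weighted Michaelis–Menten fits.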
row,Variant,self-cleavage kobs at 2500 uM GlcN6P [s⁻¹]
1,G13A G29U G60U G66A,< 1e-05
2,A33C G60U G62C,< 1e-05
3,G35C U46C A52C U54C,< 1e-05
4,A14G U31C G40U U55A,0.0012 ± 0.00032
5,C34A A39C G66C C71A,< 1e-05
6,G38A G62A G63U,< 1e-05
7,G35C A53G C71U,< 1e-05
8,C16U C34U U47C G59U C71U,< 1e-05
9,C16A G29C U45C,0.000155 ± 3.5e-05
10,A12U G35U A53U C61G U65C,< 1e-05
11,A14G U55G C68A,0.000208 ± 5.1e-05
12,A15C U30A U31C C71G,0.000148 ± 5.9e-05
13,A36U G38C U69C,< 1e-05
14,A33G G38U G44A C67G C71U,< 1e-05
15,A12U G51A G60U,< 1e-05
16,A15C G37U G40C,< 1e-05
17,A33C G40U G62A C70G,< 1e-05
18,G32U U56G C71A,9.14e-05 ± 2e-05
19,G32C G38U C58G,< 1e-05
20,A12U C34U C71U,< 1e-05
21,G32C A39G A53G G62A,< 1e-05

row,Variant,self-cleavage kobs at 2500 uM GlcN6P [s⁻¹]
1,C16U G37C G51C G59C G60C,< 1e-05
2,A14C A15C G38U,< 1e-05
3,G13C G35C G44U U56A C61U,< 1e-05
4,G37U G44U C70G,< 1e-05
5,A15U C16U C58G C70U,7.87e-05 ± 2.1e-05
6,C16U U46C A53C,0.000978 ± 0.0002
7,G38A U56G,< 1e-05
8,A15U A39G G51A,< 1e-05
9,C16A A33C C71A,< 1e-05
10,G13U U45A U46A C58U,6.89e-05 ± 3.4e-05
11,A14U G32U G40U,3.98e-05 ± 1.3e-05
12,C34G G35C G51C U57G C58U,< 1e-05
13,U31G A33C G38C A39G G62A,< 1e-05
14,A15G A33U G40U G41A,< 1e-05
15,G37C G41C U47C G59U,< 1e-05
16,C16A G29U C68U C71U,6.71e-05 ± 2.1e-05
17,C16G A48C G60U A64U,< 1e-05
18,G13C A33G G35A A48G A64G,< 1e-05
19,U31C C34A G41U U57G G60C,< 1e-05
20,A15C A39U U49A C50U A52G A53C,< 1e-05
21,U31C G32C A39G,0.000381 ± 0.00015

row,Variant,self-cleavage kobs at 2500 uM GlcN6P [s⁻¹]
1,C16A G59U A64U C67G,< 1e-05
2,A33C G40U G51U U54A,< 1e-05
3,U31C G37C A48G U49G U54C C71A,< 1e-05
4,G35U A42U U49A A53U,< 1e-05
5,A36U A48U U56C,< 1e-05
6,G32C G35U G41C C58A A64G,< 1e-05
7,A15C U55A G60C,< 1e-05
8,G40U U49A G62C C68U,< 1e-05
9,U31A U46C,0.000756 ± 0.00018
10,A33C A53U U54G,0.000173 ± 4.3e-05
11,C16U G35U G62U G63U,< 1e-05
12,A15G A33C U45A,0.000135 ± 4.1e-05
13,G32U G38C G40C U57C C67A,< 1e-05
14,A12G A14C A53U A64C,< 1e-05
15,C19U G41C U55C C70A,0.000203 ± 9.2e-05
16,G38A G51C A52U G62A,< 1e-05
17,A15G G35A U46C A53C,< 1e-05
18,G29A G43C C68G,0.00377 ± 0.0014
19,A12U G13A G32C A36G C61U,< 1e-05
20,A14U C50A C71A,4.46e-05 ± 2.1e-05
21,A12U A33U A42G G51C U55A C71G,< 1e-05

row,Variant,self-cleavage kobs at 2500 uM GlcN6P [s⁻¹]
1,G29U U57A,4.22e-05 ± 1.5e-05
2,U31C U56C C70G,< 1e-05
3,G13A U65G,8.18e-05 ± 2e-05
4,A39C G59A G62C,< 1e-05
5,G32C G66U C70A,< 1e-05
6,G40U A48U A52U,< 1e-05
7,G40C G44A U54A C61A A64G,< 1e-05
8,A12C U30A G60A,< 1e-05
9,G35C G37C U54A G66U,< 1e-05
10,U30A G37A G59C,< 1e-05
11,G40C U56C C71A,9.43e-05 ± 2.2e-05
12,A12U G32A G35U U49A C61G U65C G66A,< 1e-05
13,U30G U55A C61G C71G,5.45e-05 ± 2.4e-05
14,A39G U47G C68G,5.94e-05 ± 2.4e-05
15,G35A G40U G51A U69G,< 1e-05
16,A12G A42C G59U G63U,< 1e-05
17,C16U G43U U45G,0.00141 ± 0.00031
18,G37U G44U G59A C70U,< 1e-05
19,A12C A33G,< 1e-05
20,A15G G38U U57A G62U U69A,0.000891 ± 0.00032
21,C16U G29C A64G G66C,0.000347 ± 0.00011

# Variants of: B1
# Assay: self-cleavage kobs at 10000 uM GlcN6P; higher = faster cleavage; RNA array
# Conditions: with glucosamine-6-phosphate
# In short: as §1
row,Variant,self-cleavage kobs at 10000 uM GlcN6P [s⁻¹]
1,G35C A53G C71U,< 1e-05
2,A15G A33U G40U G41A,< 1e-05
3,A12C U30A G60A,< 1e-05
4,A12C A33G,< 1e-05
